{"source": "patent US20230226096A1", "about": "(Orna Therapeutics, Inc., priority 2020, published 2023)", "data": [{"tested_on": "HEK293 cells", "format": "cell-based, human", "details": "luminescence from secreted Gluc in supernatant 24 hours after transfection of HEK293 cells; circular RNA encoding Gluc with the named IRES (UTR truncated to 675 nt)", "values": [{"molecule": "Carp picornavirus 1 (nucleic acid) DNA: AGCTACAGGAAAGAGAGAGATAATCACAGCACATAAATACAACTACAGAAGAGAGCCTTTCCCTGAGCACTATTTACAGCAAACCACGCTGGGAAAAGTGGTAGCATGACCCACTTACGGGTTACTTAGTATAGGATTTTAATATCTTCGATTCTTTATTTTCTTTTCTTAACTAAGTTCGCCCGGACTTTATCCGTGTTTTATTTTAGTTTAAGCAAAATTGAGTAACTAAGTTTTTAACCTGCCAAATGGTGAGAAGTAACTCTGTGAAAATACCATTTGTGCATGAAATTGTCTTGAAAACTCTTAGGCTTTTGGGGGGTCCCACTGCTGTTTGGAGGACTATTGACAGACTCTATTGTAGTTGAGTAGTGACTAATGATAACGATTTGCGTATTACGCAATGGGCTGTACCCGTTAGATTTAGTATGCCGGGGGGAGGGGTCCCACTGGATTGCACTATGTAACCTGACAGGGCGTCTGCCGACGCACTACAATGAGGATAAGATCGGCTGTTTTTATTT", "Expression": "1.13E+05"}, {"molecule": "Chicken calicivirus (nucleic acid) DNA: GGTGCATCATCACTGAACACCCTCGGGCAGAGATGCAAGGGTGGAAGTCACTCCTGCCCCCTGGCAACATGCAGGTGCCCGATCCCAAGCTTAGTTCTGACTTCCTCTCCTGGGTGGTGCAACACTCCAAGGTTGATGAACAAACCTGGAGGGACCTCTGGGCAACCTGGTCTCTCGAGGATCTCCGGCGCATCTCCACAGACTACCTCATGCTCCCGGAACCTGAGAAGAACACTGATGCCTATGATGGCTGGCTGATGGTCGGCGAGATGTTGACCTTTGCCGGTCTCATTGGCTGGGAGG", "Expression": "1.28E+05"}, {"molecule": "Human coxsackievirus A2 (nucleic acid) DNA: ACCTTTGTGCGCCTGTTTTATATCCCCACCCCGAGTAAACGTTAGAAGTTACGCAACCCCGATCAATAGTAGGTGTAGCACTCCAGCTGCATCGAGATCAAGCACTTCTGTCTCCCCGGACCGAGTATCAATAGACTGCTAACGCGGTTGAAGGAGAAAACGTTCGTTACCCGGCCAATTACTTCGAGAAGCCCAGTAGTGCCGTGAAAGTTGCGGAGTGTTTCGCTCAGCACTTCCCCCGTGTAGATCAGGCTGATGAGTCACCGCGATCCCCACAGGTGACTGTGGCGGTGGCTGCGTTGGCGGCCTGCCTATGGGGCAACCCATAGGACGCTCTAATACAGACATGGTGCGAAGAGCCTATTGAGCTAATTGGTAGTCCTCCGGCCCCTGAATGCGGCTAATCCTAACTGCGGAGCACATGCCCTCAAACCAGGGGGTGGTGTGTCGTAACGGGTAACTCTGCAGCGGAACCGACTACTTTGGGTGTCCGTGTTTCTTTTTATTCTTATAATGGCTGCTTATGGTGACAATTAAAGAATTGTTACCATATAGCTATTGGATTGGCCATCCGGTGACTAACAAATCGCTCATATACCAGTTTGTTGGTTTTGTTCCCTTATCACATACAGCTCATAACACCCTCTTATATTTACTACAATTGAATAGCAAGAA", "Expression": "7.75E+07"}, {"molecule": "Chicken orivirus 1 (nucleic acid, listed as Orivirus sp.) DNA: AAACCCTCACGAGTGCTTGTGGTAGGTCCCAGGCCAATATTCTTCGTAAGGCTTGGTTCCAATTTTCCACCACTCGTGTTTGGGTTCTGGCCTATGGTACCCAGAGGGGCGGTTTGGGGGAATTAACTCCCCCTCCCCTGTGGTCCTATACCACCCCACACCTCTGTGGGCTTTCTTTACTATCTTCTTGTTTTCCGACTTTTAAACACTAGGCAGGCGCGCCTAGTCATACACCGCCCGGCTGGTCTTTCCAGCTCTTGTGGGCGGTGCGCGCTGGTCCATCGTGCCCAGCGACATAGCACCTTGTGGACACCTCCGAACGCCCTCCCCTGTATGGGGTGGTGCCCAGGGGTTTCAGTGTGGTGACACACTCCCTGGGGCCCGAAAGGCTAGTGTGCAACAGGTGAGGTACAGCCAGCTGCCCCCGTGGCTGGAGGGACCAAGCTTGTGAAGCACACCTCACCTTCTTGGGGGTGGGCTAGTAAGTGGTGAAAGCATAGTGTCCGTGTCGCTGGCCAACACTTTGGGTCAAGTCCAGCCACTCAGTGAGTAGATGCCCAGGAGGTACCCCTAGTGGATCTGACTTGGGGCCTGTTACTTAATGCAGGTTAAAAACTATGAAAGCTGAGTAGTGTAGCCCGGCTGGTGGCTTCTCTTCCTTATTCATTCTATTTT", "Expression": "3.16E+05"}, {"molecule": "Chicken gallivirus 1 (nucleic acid, listed as Gallivirus sp.) DNA: GGTTAACTTGTTTAACCAAGGCTTCCGTGCAGGGCTTGCACGTTAGGAGTTCATGTTGATTCATGCTCCAATGCCCAAAACTTTGTGTGTTTGTTTATGTCTTTCCCAAAGTTTCCCCCAAGGTTTCGGTACTCAAACCTTAATTCCTAGTCCCATCTTTTGGGCCTTAGTATCTAGGAAATGTACCCGTGCCTTGACGAACGTAAGAAAGCTGTCTTTTATTGAACGGTTCTAATGAACTAAGTATAACTGGCTCGCGCCACCTGGTGTGTGCCGTTGGAATTCCCCCATGGTAACATGGTCCAACGGGCCCGAAAGGCTAGTGGGCAATCGGTCCTCCAAGGAAGGGGTTCCCACCCCGACCTGAACAGGATTTGATGAAGCTCACCTCCCAGGCTCCTAACCCCAAGGAAGTTTACTTATAGTAATTAGAATTTAGTATGTAATTGCTGGCAATCTTGCTAGTAGTCAGGAACGTTATGACCAAATGAGTAGACCCCCAGAAGGTACCCCATTATATGGGATCTGATCTGGGCCTCATACTGTGTGTCTCCCCACATATGAGGTTAAAACCATGAAAGTTTGGTCCAAAATATTCTTTTCCTTTTATCTTTTCTTTAGTGGTGACGCCATTATATCAGCAGTTTGCTG", "Expression": "1.51E+07"}, {"molecule": "Coronavirus AcCoV-JC34 (nucleic acid) DNA: AGAAACAAGTAGTGTTTTAAAAACCTTCAAATTAGTGCCTGTAACATCTTTGCAATGAAAGTAGCGCTCACTAGCCTCTATGCAAAGAATGTTAAAAGAAATACGAAGCATTTAAAGAATACAATCTATCTAGGATAGGTACAATTCTCCTCCCCCTCTTGACTTCGGTCAACTCAACTCAACTAAACGAAATCCCCCTTGCATGGTTCCGACCCGTGTAAGGTTGTGTATTTCGTGCAGTCGTTGCCCTTACTAGTGTAAGCGTAACGGCATCTAGGTTTGCACGTCTTGGAGGAAACGGTGTGTACGTTTCTAGTGTTTACGCCGTATCGGTTCCGGCCCGATAGGTATTGCATTAGACGTCCTGGGTGGTTCTGCCTGCCCTTGTGTGATTCGGCTGTTCCGTCAGTTTGGTCACCTCACACGTCCTTAAGAC", "Expression": "1.82E+05"}, {"molecule": "Chicken picornavirus 1 (nucleic acid) DNA: GTGGCCGACTTGCAGAACTTCCTACCGAACCACCACCTCACCCCCATAACTCCTTCCCTCTACACCTTCCGCTATGGTGGTTACCACTGCTTTATTGCCTTGACTGAGAATGGCCACCCCCTCGACACCTGCCCCCTACTGCCCCACCGCGCAACCTTTTGCTTGTCCACTCGGTTGGAGAGGCATGGGGGCCCCGTTCATATCCCCAGTCCAGTTGGTGACCTTCCCCCTCCCCGTCCGGTAGATGGTCCAGAGGGCTTTGCCGACGCCCTCTATGATGCTTGCTTGTCTTTCCTCCGTCAGCGCGAGCATGCACTTGTCGAGCCCACGGAAACACAGCCTAGCTTTTGCTTCTCTCACCCTGCGTACCCTGGGCGCCTTCCGCTCGAGATTCGCTTTGTTCGACACCCTGGCGTCCCCCCACCGCTACGTGATTTTACTCGTGGCATACACCGCCCTGGCGTTCAGTACATTCCACTGCCTAATTTGGGTGGCCTCCCTCAATCTCCCGCACCCCCCATTGCGCACGTCATCACCGCCGCCGCTAACGCGATCCGGCGCGGTTCTCACTGGCACTGTCCCCTCGTCCGCCGGGTTTCCACTCATGGTTGGCTTTTCACTTATTCTGGTTACTGGTGTTCCATCCTACTTCATGATGGTCGCCATGACCATGAC", "Expression": "1.21E+05"}, {"molecule": "Chicken picornavirus 3 (nucleic acid) DNA: GGGTATGGTGGTTAACCCCGTCCACTGGGCATCTTTGCCCTCTCAGAAGTGGATCAATCCACCCCAACTCCCCCCCTGGTTACCTGAGCCACAGTGGACTCCGGTGACGAAGCTAGGGACCCCAATACCTCAAGTGCCAAGAGAGTCCCCCCCTCGCGAGAGGTGCTCTTGGGCCCAAAAGGCTAGTTGGCAGAGTGAAGTGAAGGAAGCTGCTAACGTGGTGACCTTAAGCGTAATTCGAAGCTGACCTTTGAGGTTAACCCTAGTGGACCACTGGAGGAATCTGTGGAGGTGGTGGTTAGGAAAGTTGGCCACTTGTGAGTAGATGCCCAGAAGGCATAAGGCTGATCTGGGGCCAGTGACTATACCGTTCCGGTAAACCTGGTATAAAAACCATGAAAGCAAGTGGGTGAAATTTTCTCTTTTTATCCTTCATTCAGCAGTTGATATTGGCAAA", "Expression": "9.13E+04"}, {"molecule": "Cripavirus (nucleic acid, listed as Cripavirus sp.) DNA: GCAAAATCGGTAGTACGTTAAACGTACGACCACCGATGAGACTGAAATGACACTAGTTGAGATTATTTCAATATCCTAGTGTTATAAAGTCAATATTTGTTGGTTGATCGTTTCGTCAATCGATGGCGCTGACAGCCGGAAAGACGGCAATAATAAAAACCAAGATTTAGTTTTTAAGTTTTGATTGAATTGCAAAAGCTATCTTGAATAGACAATCAAAATATTAAGTAAAGCAAAAGCTTCTTAAAGAAGACAATATTTAATTAGTTAGTAACCAAACCTCATCGTGCCCCTAAGGGTTAACCGGTTACGTAAAAGCGTAGAGGTATTAAGGTCACTGCGGAGACCTAAAATCCGCAATTTTATGTTTTGTAATGTTTTAGTTATAGACTTAGATGTAACTATAAGAGTTTATAAATACTTGTTTCAAGATTTATAGACAAGATCTGATCCTATGGATTTTAGATAACCTTCATGTTAGTGGATAGTGTGTGTACCTATCTAAACGCATAAGGCTCTTATTTCATATTTAAAGTAGGACTATGTATTACGGCGCATCTAACGGTAACGTTAGTCAAGACCGGAGAATCTCGGAATGAATTTTAGTAATTCCCAAATTTATA", "Expression": "1.95E+05"}, {"molecule": "Poecivirus BCCH-449 (nucleic acid, listed as Poecivirus sp.) DNA: ACTACACAATCGCAACACGCGCAAGTTTGTAGTTTGATTGGCGTGCAAATGTCAAATCAAGCATATAACACAATTTGGTGGCTGTTGGTGTTTGTTATAGGAATTTTGGTTGTGTTGAAATTGTGGATGTGTAGGAAATATGCACAATTACGTCAGCGTCAGGAGTTTTATAACCTGGCGCAACACCAAAATGGTCTTCGCGCTTTAACATCACCAGCGAGGTGTAAACAAATTGAAGTTGAATTAGATCGTGTATAGGCCAGGGAACCATCCCTCCCAACGCCACATCTTGTGGGGAAGTTGGGATAATGGTGGGTCTATATGAATTGGTCTGTAGACCCACAGTGAAGAGTGAATAGTATGCTTGCGGTTCCATTTGTTAATGGTCTAGCATGGGTGGGGGCGGCAACCCCGTGAGGGGTTCCCCACTGGCCAAAAGCCCAGGGGTTAGTCATTTCAACCAAGGAAGCTGGTAACCTGGTGACCTGAACTTGAGTGGTGAGACCCCCTTGCTAGAGTGTGTAAACCGATTGTAAGCATTTTGTTTGCTTAGTATCTGTGGTATAAGCAGTCAATTTTGTATAGGCTCAAGGCTGTGGTAGTTAGTAGATGCCCGGAAGGTTATTACTGATCCGGGGACCGTGACTATACATTAGGTAAACCGGTTTAAAAACC", "Expression": "3.43E+05"}]}]}
